# Entries after “also recorded” stand apart in the source; their conditions may differ.
# Tests used:
# hNodal(44-67) peptide [1] = assay: ELISA screening of hybridoma supernatants on coated hNodal(44-67) and hNodal(44-67)E49A-E50A; type: binding, human; conditions: ELISA
# Description: (§1) Screening of hybridoma supernatants was carried out by ELISA coating the hNodal(44-67) BSA-conjugated peptide. Nine clones were positive. The pre-selected hybridoma supernatants were screened using in parallel hNodal(44-67) and its mutated variant hNodal(44-67)E49A-E50A. The assay was performed coating the unconjugated peptides at 330 nM and testing the hybridoma supernatants at a total protein concentration of 5.0 μg/mL (33 nM).
# (§2) For hybridoma supernatants screening, hNodal(44-67) and hNodal(44-67)E49A-E50A were coated at 330 nM diluted in PBS on polystyrene conical flat bottom 96-well plates at 4° C. overnight (100 μL/well). After incubation, the coated wells were washed three times with PBS containing 0.005% Tween-20 (PBS-T) and non-specific binding sites were blocked by incubating with 1% BSA in PBS (300 μL/well) for 1 h at 37° C. After washing three times with PBS-T, supernatants of hybridomas diluted in PBS at 33 nM were incubated for 1 h at 37° C. (100 μL/well). […] After incubation and three washes with PBS-T, bound antibodies were detected by adding 100 μL/well of freshly prepared 0-phenylenediamine (0.4 mg/mL) containing H2O2 (0.4 mg/mL) in 0.1 M citrate buffer (pH 5.2) (SIGMAFAST™ OPD tablet Sigma-Aldrich). The peroxidase reaction was stopped after 5 min with 50 μL/well of 2.5 M H2SO4 and the optical density was measured at 490 nm, using a microplate reader. […]
# hNodal(44-67) peptide [2] = target: T1, hNodal(44-67) peptide (Homo sapiens, UniProt Q96S42); assay: as above; type: binding; conditions: peptides coated at 330 nM; supernatants at 5.0 μg/mL (33 nM)
# T1 construct: made in house; host or cells: chemical synthesis (Fmoc solid phase)
# T1 sequence (Q96S42 281-304): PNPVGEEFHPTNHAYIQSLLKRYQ
# Description: as §1, §2
molecule,measurement,setting,value
"3D1: mouse monoclonal anti-Nodal antibody raised against hNodal(44-67); light chain SEQ ID NO:1, heavy chains SEQ ID NO:2 and 3 (protein, not fully specified; (120)..(120) Xaa can be any naturally occurring amino acid) light: DIKMTQSPASLSASVGETVTITCRASGNIHNYLAWYQQKQGKSPQLLVYNAKTLADGVPSRFSGSGSGTQYSLKINSLQPEDFGSYYCQHFWSTPHVRCWDQAGTETEAW heavy 1: VKLVESGGGLVKPGGSLKLSCAASGFTFSSYAMSWVRQTPEKRLEWVASISSGGCTYYPDSVKGRFTISRDNARNILYLQMSSLRSEDTAMYYCARGSMITADGNSLLLCYGLLGSRNLXHR heavy 2: VKLVESGGGLVQPGGSMKLSCVASGFTFRNYWMSWVRQSPEKGLEWVAEIRLKSDNYAARYAESVKGKFTISRDDSKSRLYLQMNSLRAEDTGIYYCTGIRRFAYWGQGTL",recognition of wild-type hNodal peptide versus E49A-E50A mutated variant,hNodal(44-67) peptide [1],displayed selectivity for wild type Nodal peptide; also recorded: much better than the mutated variant; also recorded: recognizes less robustly the mutated peptide variant
same,recognition of the immobilized antigen hNodal(44-67),hNodal(44-67) peptide [2],recognized the immobilized antigen
